Laboratory results as given in the supplement of paper PMC12455559.
± gives the standard deviation of the averaged measurements.

How the values were obtained:
[1] = melting temperature (DSF); higher = more thermostable
In short: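 Values are melting temperatures from differential scanning fluorimetry. Candidate enzymes were expressed in E. coli C41(DE3), purified on nickel beads and freed by SUMO protease cleavage. In sealed PCR plates on a Bio-Rad CFX96, 45 μL enzyme (0 to 0.3 mg/mL) was combined with 5 μL 5X Sypro Orange. Fluorescence was recorded from 25 °C for 250 cycles, rising 0.3 °C per cycle at a ramp of 0.3 °C/s.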

[2] = purified protein yield per well (BCA); higher = higher soluble expression
In short: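 Candidate enzymes were expressed in E. coli C41(DE3) in 2 mL autoinduction cultures with 100 µg/mL kanamycin, at 37 °C for 2 h and then 18 °C for 40 h. Cells were lysed, and protein was bound to Ni-charged magnetic beads and released by SUMO protease cleavage on an OT-2 robot. The read-out is purified protein yield per well, measured with the Pierce Rapid Gold BCA kit. Values below 25 ug (0.1 mg/mL) are below the detection threshold.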

[3] = PET hydrolysis, aromatic products released after 48 h (umol product/mg enzyme); higher = more PET depolymerization activity
In short: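 The measure of PET hydrolysis activity is aromatic product released into the supernatant, given per mg enzyme. Nickel-purified, SUMO-cleaved enzyme without tag was added at 5 μg (50 μL) to 3.5 mg amorphous PET film or crystalline PET powder in 450 μL of citrate, phosphate or glycine buffer spanning pH 4.5 to 8.5. After 48 h at 40 or 60 °C in sealed plates without shaking, absorbance at 260 and 280 nm was taken against buffer blanks.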

[4] = substrate: cryPow, 40 °C, pH 4.5
[5] = substrate: cryPow, 40 °C, pH 5.5
[6] = substrate: cryPow, 40 °C, pH 6.5
[7] = substrate: cryPow, 40 °C, pH 7.5
[8] = substrate: cryPow, 60 °C, pH 4.5
[9] = substrate: cryPow, 60 °C, pH 5.5
[10] = substrate: cryPow, 60 °C, pH 6.5
[11] = substrate: cryPow, 60 °C, pH 7.5
[12] = substrate: aFilm, 40 °C, pH 4.5
[13] = substrate: aFilm, 40 °C, pH 5.5
[14] = substrate: aFilm, 40 °C, pH 6.5
[15] = substrate: aFilm, 40 °C, pH 7.5
[16] = substrate: aFilm, 60 °C, pH 4.5
[17] = substrate: aFilm, 60 °C, pH 5.5
[18] = substrate: aFilm, 60 °C, pH 6.5
[19] = substrate: aFilm, 60 °C, pH 7.5

Sequence | melting temperature [1] | purified protein yield per well [2] | PET hydrolysis [3, 4] | PET hydrolysis [3, 5] | PET hydrolysis [3, 6] | PET hydrolysis [3, 7] | PET hydrolysis [3, 8] | PET hydrolysis [3, 9] | PET hydrolysis [3, 10] | PET hydrolysis [3, 11] | PET hydrolysis [3, 12] | PET hydrolysis [3, 13] | PET hydrolysis [3, 14] | PET hydrolysis [3, 15] | PET hydrolysis [3, 16] | PET hydrolysis [3, 17] | PET hydrolysis [3, 18] | PET hydrolysis [3, 19]
ADNPYQRGPDPTRTSVATENGPFANTSVSVPTGYGFNGGRIYYPTDTSQGTFGAIAISPGYTALFSAELAWMGPWLASHGFVVIGIETNSRNDFDTARGTQLLAALDYLTQQSPVRDRVDPTRLAVAGHSMGGGGALSAATRRSSLKAAVGIAPYSPSSNLANDRVPTMIFSGQADTVVTPSYATSLYNSLPSTTESIYLEVAGADHGFMVGRSNPVMIRTMLPFLKMFIDNDARYSQFLCPLLDSSGVVTSRSTCPLLPSTPTTPPTDPPTDPPTNPPGSANEIVGTQSGRCVDVPNAATTNGTRVQLYTCNKQTNQAWTYTSGKQLQVYGTMCLDAAGSGNGAAVQIYSCHSQTNQQWNVNSNGTISNVQSGRCLDVWSTSNGAQIQLYDCHGQTNQQFRLAALGGGTQTPTPTPTTPPPTGGACDLPSSYRWSSTG [ESM143] | 55.9 C | 55.9 µg | < 3 | < 3 | < 3 | < 3 | < 3 | < 3 | < 3 | < 3 | – | – | – | – | – | – | – | –
ADNPYQRGPDPTRTSVATERGPFANTSVSVPSGYGFNGGRIYYPTDTSQGTFGAIAISPGYTALFSAELAWMGPWLASHGFVVIGIETNSRNDFDTARGTQLLAALDYLTQQSPVRDRIDPNRLAVSGHSMGGGGALSAAMRRSSLKAVVGIAPYSPSSNLANDRVPTMIFSGQADTVVTPSYAMGLYNSIPAGTKSAYLEVAGGDHGFMVGRSNPVLIRTMLPFLKIFIDNDARYSQFLCPLLDNSGVVTYRSTCPFLPTTPTTPPPTG [ESM065] | 67.9 C | 250 µg | 21 | 29 | 7 | < 3 | < 3 | 4 | < 3 | < 3 | – | – | – | – | – | – | – | –
ADNPYQRGPDPTRTSVTAENGPFANTSVSVPTGYGFNGGRIYYPTDTSQGTFGAIAISPGYTALFSAELAWMGPWLASHGFVVIGIETNSRNDFDTARGTQLLAALDYLTQQSPIRDRVDPNRLAVAGHSMGGGGALSAASRRSSLRAVVGIAPYSPSSNLANDRVPTMIFSGQADTVVTPSYATGLYNSLPATTKSVYLEVAGADHGFMVGRSNPVMIRTMLPFVKMFIDNDARYSQFLCPLLDSSGVVTYRSTCPLLPSTPTTPTPTPTDPPTVPPGSANEIVGTQSGRCVDVPNASRNNGTRVQLYDCNKQTNQAWTYTATKQLQVYGNMCLDAAGSGNGAAVQIYSCHSQTNQQWNVNSNGTISSVQSGRCLDAWSTTNGAQIQLYDCHGQTNQQFRLVSLAR [ESM161] | 63.1 C | 137 µg | 10 | 13 | 21 | 6 | < 3 | < 3 | < 3 | < 3 | – | – | – | – | – | – | – | –
ADNPYQRGPDPTRTSVTAVNGPFANTSVSVPTGHGFNGGRIYYPTDTSQGTFGAIAISPGYTALFSAELAWMGPWLASHGFVVIGIETNSRNDFDTARGTQLLAALDYLTQQSPVRDRVDPSRLAVSGHSMGGGGALSAAMRRASLKAVVGITPYSPSSNLANDRVPTMIISGQADTVVTPSYALGLYNSIPATTESVYLEVAGGDHGFMVGRSNPVLVRTMLPFLKMFIDNDTRYSQFLCPLLDNSGVVTYRSTCPLLPTDPTTPPTGTPTPTPTTPAPTTPPPTTPPGSASEIRGTQSNRCIDVPNASRNNGTRVQLYDCNRQTNQAWTYTANKQLQVYGNMC [ESM106] | 62.2 C | 392 µg | 9 ± 4.2 | 24 ± 5.7 | 28 ± 2.8 | 19 ± 1.4 | < 3 | 2 ± 2.8 | 4.5 ± 0.71 | < 3 | < 3 | 1.5 ± 2.1 | 3.5 ± 0.71 | < 3 | < 3 | < 3 | < 3 | < 3
ADNPYQRGPDPTRTSVTAVNGPFANTSVSVPTGQGFNGGRIYYPTDTSQGTFGAVAISPGYTALFSAELAWMGPWLASHGFVVIGIETNSTNDFDTARGTQLLAALDYLTQRSSVRDRVDPNRLAVSGHSMGGGGALSAAARRSSLKAVVGITPYSPSSNLANVRVPTMVVSGQADTVVTPSYALNLYNSLPSTTESVYLEVAGGDHGFMVGRSNPVLVRTMLPFLKMFVDNDTRYSQFLCPLMDNSGVVTYRSTCPLLPTPTTPPPTTGPTTPPPTTPPTTTPPPSGSTGQIVGTQSNRCIDVPNSSRNNGTRVQLYDCHGQANQTWTYDSSTKQLRVYGDMCLDASGSGNGAAVQIYSCHNQTNQQWNINSNGTISGVQSNRCLDAWSTNNGAQIQLYDCHGQTNQQFRIRA [TEP168] | 65.2 C | 213 µg | 4 | 9 | 9 ± 1.4 | 4.5 ± 0.71 | < 3 | < 3 | < 3 | < 3 | < 3 | < 3 | < 3 | < 3 | < 3 | < 3 | < 3 | < 3
ADNPYQRGPDPTRTSVTAVNGPFANTSVSVPTGYGFNGGRIYYPTDTSQGTFGAIAISPGYTALFSAELAWMGPWLASHGFVVIGIETNSRNDFDTARGTQLLAALDYLTQQSPVRDRVDPNRLAVAGHSMGGGGALSAAIRRPSLKAVVGIAPYSPSSNLANDRVPTMIFSGQADTVVTPSYATGLYNSLPATTESVYLEVAGADHGFMVGRSNPVMVRTMLPFVKMFIDDDARYSQFLCPLLDNSGVVTYRSTCPLLPTTPTTPPTGTPTPTPTPTQTTPPPGSASQIVGTQSGRCVDVPNASTTNGTRVQLYDCNRQTNQAWTYTSTKQLQVYGTMCLDAAGTGNGAAVQIYSCHSQTNQQWNVNSNGTISSVQSGRCLDAWSTANGAQIQLYDCHGQTNQQFRLAALA [ESM095] | 63.7 C | 147 µg | 11 | 21 | 22 | 10 | < 3 | < 3 | < 3 | < 3 | – | – | – | – | – | – | – | –
ADNPYQRGPDPTRTSVTAVNGPFANTSVSVPTGYGFNGGRIYYPTDTSQGTFGAIAISPGYTALFSAELAWMGPWLASHGFVVIGIETNSRNDFDTARGTQLLAALDYLTQQSPVRDRVDPNRLAVAGHSMGGGGALSAATRRPSLKAVVGIAPYSPSSNLANDRVPTMIFAGQADTVVTPSYATGLYNSLPATTESVYVEVAGADHGFMVGRSNPVMVRTMLPFVKMFIDNDTRYSQFLCPLLDSSGVVTYRSTCPLLPSTPTPTDPPTPTDPPTVPPGSANEIVGTQSGRCVDVPNASRTNGTRVQLYGCNKQTNQAWTYTSSKQLQVYGNMCLDAAGTGNGAAVQIYSCHNQTNQQWNVNSNGTISNVQSGRCLDAWSTANGAQIQLYDCHGQTNQQFRLAALAG [ESM069] | 63.4 C | 213 µg | 10.5 ± 2.1 | 29 ± 2.8 | 42 | 17 ± 1.4 | < 3 | 4.5 ± 0.71 | 4 | < 3 | < 3 | 4 | < 3 | < 3 | < 3 | < 3 | < 3 | < 3
ADNPYQRGPDPTRTSVTAVNGPFANTSVSVPTGYGFNGGRIYYPTDTSQGTFGAIAISPGYTALFSAELAWMGPWLASHGFVVIGIETNSRNDFDTARGTQLLAALDYLTQQSPVRDRVDPNRLAVAGHSMGGGGALSAATRRSSLKAVVGIAPYSPSSNLANDRVPTMIFAGQADTVVTPSYATNLYNSLPTTTESVYLEVAGADHGFMVGRSNPVMVRTMLPFVKMFVDNDTRYSQFLCPLADSSGVVTYRSTCPLLPSTPTTPTATPTNTPTPTASPTVPPGSASQIVGTQSGRCIDVPNASHTNGTRVALYDCNRQSNQSWTYTSTKQLQVYGTMCLDAAGSGNGAAVQIYGCHSQTNQQWNVNSNGTISSVQSGRCLDVWSTANGAQVQLYDCHGQTNQQFRLVSLAR [ESM137] | 62.2 C | 140 µg | 10 | 18 | 17 | 8 | < 3 | < 3 | < 3 | < 3 | – | – | – | – | – | – | – | –
ADNPYQRGPDPTRTSVTAVNGPFANTSVSVPTGYGFNGGRIYYPTDTSQGTFGAIAISPGYTALFSAELAWMGPWLASHGFVVIGIETNSRNDFDTARGTQLLAALDYLTQQSPVRDRVDPNRLAVSGHSMGGGGALSAAMRRSSLKAVVGITPYSPSSNLANDRVPTMIISGQADTVVTPSYALGLYNSIPTTTKSVYLEVAGGDHGFMVGRSNPVMVRTMLPFVKMFIDNDARYSQFLCPLLDNSGVVTYRSTCPLLPTTPPTGTPTPTPTNSPTTPPPGSASGIVGAQSGRCIDVPNASRSNGTRVQLYDCNRQSNQSWTYTANKQLRVYGDMCLDAAGSGNGAAVQIYSCHNQTNQQWNVNSNGTITGVQSGRCLDVWSTSNGAQVQLYDCHGQANQQFRLAPLA [ESM059] | 65.8 C | 311 µg | 10 | 21 ± 1.4 | 26 | 21.5 ± 2.1 | < 3 | 5 | 4 | 2 ± 2.8 | < 3 | 2 ± 2.8 | 1.5 ± 2.1 | < 3 | < 3 | < 3 | < 3 | < 3
ADNPYQRGPDPTRTSVTAVNGPFANTSVSVPTGYGFNGGRIYYPTDTSQGTFGAIAISPGYTALFSAELAWMGPWLASHGFVVIGIETNSRNDFDTARGTQLLAALDYLTQQSPVRDRVDPTRLAVAGHSMGGGGALSAAIRRSSLKAVVGIAPYSPSSNLANDRVPTMIFSGQADTVVTPSYATGLYNSLPSTTESVYLEVAGADHGFMVGRSNPVMVRTMLPFVKMFVDNDARYSQFLCPLLDNSGVVTYRSTCPLLPSTPTTPTPTPTDPTTPTPTPTVPPGSASQIVGTQSGRCIDVPNASRTNGTRVQLYDCNRQTNQAWTYTSGKQLQVYGNMCLDAAGTGNGAAVQIYSCHSQTNQQWNVNSNGTISNVQSGRCLDVWSTANGAQIQLYDCHSQTNQQFRVTPLA [ESM062] | 62.5 C | 135 µg | 11 | 27 | 33 | 24 | < 3 | 4 | 4 | < 3 | – | – | – | – | – | – | – | –
